# Values of other authors as cited in article PMC5266585.
# Assays:
# [1] = biological target: LRP1 CR4-CR5-CR6 (Homo sapiens) (UniProt Q07954)
# [2] = biological target: LRP1 principal ligand binding region fragments (Homo sapiens) (UniProt Q07954)
substance,measurement,setting,value
PAI-1 (from UniProt P05121),Kd,[1],1.5 nM
same,Kd,[2],< 3 nM
